Here are results for 3 molecules from patent US20100325744A1 (Genmab, published 2010).

Data set [1] concerns the molecule itself. Description: self-association; gel filtration on Superdex 200 in PBS, fractions read by Bet v 1 binding test.
Description: Samples (100 μl) were applied to a Superdex 200 HR 10/30 column (Amersham Biosciences, Uppsala, Sweden), which was connected to a HPLC system (ÄKTA explorer) from Amersham Biosciences, Uppsala, Sweden. The column was first equilibrated in PBS. Fractions of 250 μl were collected, in which Bet v 1 specific IgG was measured using the antigen binding assay.
To test the antigen binding of the Bet v 1 specific antibodies, a sample of diluted antibody was incubated overnight at room temperature with 0.75 mg Protein-G sepharose (Amersham Biosciences, Uppsala, Sweden) in 750 μl PBS/AT (PBS supplemented with 0.3% BSA, 0.1% Tween-20, 0.05% NaN3) together with 50 μl diluted ¹²⁵I-labelled Bet v 1 or ¹²⁵I-labelled Fel d 1. […] After washing the Sepharose suspension with PBS-T (PBS supplemented with 0.1% Tween-20), the bound radioactivity was measured. The results were expressed as the amount of radioactivity relative to the amount added.
A further data set addresses T1, human C1q (Quidel) (human, UniProt P02745 23-245; P02746 28-253; P02747 29-245).
T1 construct: Bought (Quidel, lot 900848); also called first component of the classical complement cascade
Description: ELISA, antibody coated, C1q detected with rabbit anti-human C1q. (In general: In an ELISA, binding on a coated surface is turned into a signal by an enzyme label.)

T1 sequence (P02745 23-245 limits assumed, chain 1 of 3): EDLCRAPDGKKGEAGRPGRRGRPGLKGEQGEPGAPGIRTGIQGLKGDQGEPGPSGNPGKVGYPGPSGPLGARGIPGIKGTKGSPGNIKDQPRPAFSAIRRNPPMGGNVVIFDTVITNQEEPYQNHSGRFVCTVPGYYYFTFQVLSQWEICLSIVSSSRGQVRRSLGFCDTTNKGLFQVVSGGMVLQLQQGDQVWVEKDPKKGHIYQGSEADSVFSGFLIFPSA
T1 sequence (P02746 28-253 limits assumed, chain 2 of 3): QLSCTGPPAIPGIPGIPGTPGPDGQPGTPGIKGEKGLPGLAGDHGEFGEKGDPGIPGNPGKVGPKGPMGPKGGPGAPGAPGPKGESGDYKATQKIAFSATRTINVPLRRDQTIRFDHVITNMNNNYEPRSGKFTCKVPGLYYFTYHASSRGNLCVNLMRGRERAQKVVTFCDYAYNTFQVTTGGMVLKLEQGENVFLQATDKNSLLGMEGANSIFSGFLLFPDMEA
T1 sequence (P02747 29-245 limits assumed, chain 3 of 3): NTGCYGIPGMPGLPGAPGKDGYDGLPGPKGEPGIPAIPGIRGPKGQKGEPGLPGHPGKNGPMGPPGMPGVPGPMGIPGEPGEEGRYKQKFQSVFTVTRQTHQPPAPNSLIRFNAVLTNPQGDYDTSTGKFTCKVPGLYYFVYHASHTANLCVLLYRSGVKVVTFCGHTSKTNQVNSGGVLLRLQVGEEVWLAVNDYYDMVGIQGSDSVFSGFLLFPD
Description for human C1q (Quidel): In short, microtiter ELISA plates (Greiner, Germany) were coated overnight at RT with the test antibodies serially diluted from 10 μg/ml to 0.06 μg/ml in PBS. Plates were emptied and wells were blocked with 200 μl ELISA-diluent per well (0.1 M NaPO₄, 0.1 M NaCl, 0.1% gelatin and 0.05% Tween-20), at RT for 30 minutes. […] After washing the plates (3×) with PBST, wells were incubated with HRP-conjugated swine anti-rabbit IgG-Fc (DAKO, P0300, lot #069) diluted in ELISA diluent (1:2500, 100 μl/well, RT, 1 hour). Thereafter, plates were washed thrice and assays were developed with freshly prepared 1 mg/ml ABTS solution (ABTS: 2,2′-azino-bis[3-ethylbenzthiazoline-6-sulfonic acid]); 2 tablets of 5 mg in 10 ml ABTS buffer, Boehringer Mannheim, Ingelheim, Germany) at RT in the dark for 30 minutes.

B1: Betv1-HG (antibody, V domains shown)
VH: EVQLQQSGAELVKPGASVKLSCTASGFNIKDTYIHWVKQRPEQGLEWVGRIDPATGNTRYDPKFQGKATITADTSSNTAYLQLSSLTSEDTAVYYCASFRPGYALDYWGQGTSVTVSS
VL: DIVMTQSHKFMSTSVGDRVSFTCKASQDVFTAVAWYQQKPGQSPKLLIYWASTRRTGVPDRFTGSGSGTDYTLTISSVQAEDLALYYCQQHFSTPPTFGGGTKLEIK
notes: Half-molecule of one heavy and one light chain; also called hingeless IgG4 anti-Bet v 1; hingeless rIgG4 Betv1-HG; not shown: human kappa light chain constant region, allotype km3 (vector pConKappa0.4, Lonza)
With B1, the binding result in data set [1] is “no binding”.

B2: 7D8-IgG4 (antibody)
heavy: not shown
light: EIVLTQSPATLSLSPGERATLSCRASQSVSSYLAWYQQKPGQAPRLLIYDASNRATGIPARFSGSGSGTDFTLTISSLEPEDFAVYYCQQRSNWPITFGQGTRLEIK
notes: Produced from pTomG47D8 and pConK7D8; also called IgG4 anti-CD20; not shown: human kappa light chain constant region, allotype km3 (vector pConKappa0.4, Lonza)
For the molecule B2, the binding result with human C1q (Quidel) is on record as “no binding”.

B3: 7D8-HG (antibody)
heavy: EVQLVESGGGLVQPDRSLRLSCAASGFTFHDYAMHWVRQAPGKGLEWVSTISWNSGTIGYADSVKGRFTISRDNAKNSLYLQMNSLRAEDTALYYCAKDIQYGNYYYGMDVWGQGTTVTVSSASTKGPSVFPLAPCSRSTSESTAALGCLVKDYFPEPVTVSWNSGALTSGVHTFPAVLQSSGLYSLSSVVTVPSSSLGTKTYTCNVDHKPSNTKVDKRVAPEFLGGPSVFLFPPKPKDTLMISRTPEVTCVVVDVSQEDPEVQFNWYVDGVEVHNAKTKPREEQFNSTYRVVSVLTVLHQDWLNGKEYKCKVSNKGLPSSIEKTISKAKGQPREPQVYTLPPSQEEMTKNQVSLTCLVKGFYPSDIAVEWESNGQPENNYKTTPPVLDSDGSFFLYSRLTVDKSRWQEGNVFSCSVMHEALHNHYTQKSLSLSLGK
light: B2 light
notes: Half-molecule of one heavy and one light chain; in PBS without other IgG it is reported to form a non-covalent dimer; also called hingeless IgG4 anti-CD20; IgG4 HG; not shown: human kappa light chain constant region, allotype km3 (vector pConKappa0.4, Lonza)
Consider B3, for which the binding result in the data set with human C1q (Quidel) is listed as “no binding”.
